Reference: patent publication US20200255543A1 (ROCKEFELLER UNIVERSITY, published 2020)

Columns and labels:
[1] = target: T1, recombinant human MERTK (human, UniProt Q12866 21-505, limits assumed); experiment: biolayer interferometry, M19 loaded on AMQ sensor at 1 ug/mL, hMer in solution at 0.0781 nM, local 1:1 fit
T1 construct: Analyte in solution in biolayer interferometry; also called hMer
T1 sequence: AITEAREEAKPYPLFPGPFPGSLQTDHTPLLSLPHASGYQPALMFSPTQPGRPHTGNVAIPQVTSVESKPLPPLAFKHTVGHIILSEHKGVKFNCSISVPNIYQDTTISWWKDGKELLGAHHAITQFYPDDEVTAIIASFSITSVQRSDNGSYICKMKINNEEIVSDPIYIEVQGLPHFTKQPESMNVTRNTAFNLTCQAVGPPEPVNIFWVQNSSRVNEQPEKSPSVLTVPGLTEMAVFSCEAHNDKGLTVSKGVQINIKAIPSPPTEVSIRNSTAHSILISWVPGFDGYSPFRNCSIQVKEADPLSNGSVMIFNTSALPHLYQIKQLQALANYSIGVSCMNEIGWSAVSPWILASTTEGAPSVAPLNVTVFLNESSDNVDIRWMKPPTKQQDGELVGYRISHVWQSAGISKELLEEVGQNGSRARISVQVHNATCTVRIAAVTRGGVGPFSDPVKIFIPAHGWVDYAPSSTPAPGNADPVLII
Method: (§1) FIG. 7: M19 binds to human MERTK with high affinity. A diagram showing antibody binding kinetics for M19 (Mer-M19) against human MERTK (hMer) using biolayer interferometry. Purified M19 was loaded on an AMQ sensor at a concentration of 1 microgram/mL to test binding against analytes in solution. All analytes were prepared at 5 nM with a 2-fold dilution series for a total of 7 concentrations. Kinetic fits were calculated using a 1:1 model, with Local fits for each concentration as well as an overall global fit.
(§2) To characterize the binding affinity of M19 antibody against recombinant human and mouse MERTK, biomolecular interaction analysis was performed using biolayer interferometry (FIG. 7 and FIG. 8). Binding was observed between M19 and both mouse and human MERTK.

[2] = target: T2, recombinant mouse MERTK (mouse, UniProt Q60805 23-496, limits assumed); experiment: biolayer interferometry, M19 loaded on AMQ sensor at 1 ug/mL, msMer in solution at 0.0781 nM, local 1:1 fit
T2 construct: Analyte in solution in biolayer interferometry; also called msMer; murine MERTK
T2 sequence (looked up): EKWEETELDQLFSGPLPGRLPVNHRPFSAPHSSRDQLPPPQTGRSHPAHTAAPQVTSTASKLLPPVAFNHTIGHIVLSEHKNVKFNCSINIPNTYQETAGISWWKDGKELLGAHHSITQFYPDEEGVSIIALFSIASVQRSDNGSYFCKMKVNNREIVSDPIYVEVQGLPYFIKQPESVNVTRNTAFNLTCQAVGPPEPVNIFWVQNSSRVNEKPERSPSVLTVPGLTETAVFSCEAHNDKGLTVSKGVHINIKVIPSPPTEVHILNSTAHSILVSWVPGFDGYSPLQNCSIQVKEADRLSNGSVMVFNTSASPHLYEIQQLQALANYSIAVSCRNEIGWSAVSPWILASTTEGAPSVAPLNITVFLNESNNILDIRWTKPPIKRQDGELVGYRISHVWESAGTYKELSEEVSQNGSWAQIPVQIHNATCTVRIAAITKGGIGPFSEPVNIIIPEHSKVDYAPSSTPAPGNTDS
Method: as §1, with “8:” for “7:”, “murine” for “human”, “(msMer)” for “(hMer)”, “Global” for “global”
as §2

[3] = target: T2, recombinant mouse MERTK; experiment: biolayer interferometry, M19 loaded on AMQ sensor at 1 ug/mL, msMer in solution at 0.3125 nM, local 1:1 fit
Method: as §1, with “8:” for “7:”, “murine” for “human”, “(msMer)” for “(hMer)”, “Global” for “global”
as §2

[4] = target: T2, recombinant mouse MERTK; experiment: biolayer interferometry, M19 loaded on AMQ sensor at 1 ug/mL, msMer in solution at 0.1563 nM, local 1:1 fit
Method: as §1, with “8:” for “7:”, “murine” for “human”, “(msMer)” for “(hMer)”, “Global” for “global”
as §2

[5] = target: T2, recombinant mouse MERTK; experiment: biolayer interferometry, M19 loaded on AMQ sensor at 1 ug/mL, msMer in solution at 1.25 nM, local 1:1 fit
Method: as §1, with “8:” for “7:”, “murine” for “human”, “(msMer)” for “(hMer)”, “Global” for “global”
as §2

[6] = target: T1, recombinant human MERTK; experiment: biolayer interferometry, M19 loaded on AMQ sensor, hMer analyte from 5 nM in 2-fold dilutions, 1:1 model, global fit
Method: as §1

[7] = target: T1, recombinant human MERTK; experiment: biolayer interferometry, M19 loaded on AMQ sensor at 1 ug/mL, hMer in solution at 5 to 0.0781 nM, global 1:1 fit
Method: as §1, §2

[8] = target: T1, recombinant human MERTK; experiment: biolayer interferometry, M19 loaded on AMQ sensor at 1 ug/mL, hMer in solution at 0.3125 nM, local 1:1 fit
Method: as §1, §2

[9] = target: T1, recombinant human MERTK; experiment: biolayer interferometry, M19 loaded on AMQ sensor at 1 ug/mL, hMer in solution at 5 nM, local 1:1 fit
Method: as §1, §2

[10] = target: T1, recombinant human MERTK; experiment: biolayer interferometry, M19 loaded on AMQ sensor at 1 ug/mL, hMer in solution at 0.625 nM, local 1:1 fit
Method: as §1, §2

Kd [1]: 0.0765 nM
koff [1]: 0.000934 s⁻¹
kon [1]: 1.22e+07 M⁻¹ s⁻¹
Kd [2]: 0.0472 nM
koff [2]: 0.00108 s⁻¹
kon [2]: 2.29e+07 M⁻¹ s⁻¹
Kd [3]: 0.115 nM
koff [3]: 0.00106 s⁻¹
kon [3]: 9.23e+06 M⁻¹ s⁻¹
Kd [4]: 0.117 nM
koff [4]: 0.00129 s⁻¹
kon [4]: 1.1e+07 M⁻¹ s⁻¹
Kd [5]: 0.282 nM
koff [5]: 0.00149 s⁻¹
kon [5]: 5.27e+06 M⁻¹ s⁻¹
Kd [6]: 0.326 nM
koff [7]: 0.001 s⁻¹
kon [7]: 3.08e+06 M⁻¹ s⁻¹
Kd [8]: 0.128 nM
koff [8]: 0.000968 s⁻¹
kon [8]: 7.57e+06 M⁻¹ s⁻¹
Kd [9]: 0.246 nM
koff [9]: 0.000951 s⁻¹
kon [9]: 3.86e+06 M⁻¹ s⁻¹
Kd [10]: 0.155 nM
koff [10]: 0.00079 s⁻¹
kon [10]: 5.11e+06 M⁻¹ s⁻¹
B1: monoclonal antibody M19 (antibody, V domains shown)
VH: EVQLEESGPDLKKPGETVKISCKASNYTFTDYSMHWVKQAPGKGLKWVGWINTDTGEPTYADDFKGRFAFSLETSASTAYLQINNLKNEDTATYFCARWFGAMDYWGQGTSVTVSS
VL: DIVITQSHKFMSTSVGDRVSITCKASQDVTNVVAWYQQKPGQSPKLLIYSASYRYTGVPDRFTGSGSGTDFTFTISSVQAEDLAVYYCQQYYRTPRTFGGGTKLEIKR
notes: Mouse hybridoma monoclonal antibody; Hybridoma supernatant was used in the ELISA screen, purified antibody in biolayer interferometry; also called Mer-M19
